# Substrate: Nc1ncnc2c1ncn2[C@@H]1O[C@H](COP(=O)(O)OP(=O)(O)OP(=O)(O)O)[C@@H](O)[C@H]1O
# Experiment: purified protein
# Format: biochemical, Escherichia coli
# Settings: non-parallel (TTAGGG)4-T15 G4 DNA, 100 nM protein, 1 μM to 2 mM ATP, 50 mM KCl, 3 mM MgCl2, pH 7.5, ~23 °C
protein,measurement,value
"UvrD (Escherichia coli K-12) (protein, expressed in E. coli BL21(DE3) pLysS; Polymin P, ammonium sulfate, heparin and Sephacryl S-300 purification; no tag mentioned) MDVSYLLDSLNDKQREAVAAPRSNLLVLAGAGSGKTRVLVHRIAWLMSVENCSPYSIMAVTFTNKAAAEMRHRIGQLMGTSQGGMWVGTFHGLAHRLLRAHHMDANLPQDFQILDSEDQLRLLKRLIKAMNLDEKQWPPRQAMWYINSQKDEGLRPHHIQSYGNPVEQTWQKVYQAYQEACDRAGLVDFAELLLRAHELWLNKPHILQHYRERFTNILVDEFQDTNNIQYAWIRLLAGDTGKVMIVGDDDQSIYGWRGAQVENIQRFLNDFPGAETIRLEQNYRSTSNILSAANALIENNNGRLGKKLWTDGADGEPISLYCAFNELDEARFVVNRIKTWQDNGGALAECAILYRSNAQSRVLEEALLQASMPYRIYGGMRFFERQEIKDALSYLRLIANRNDDAAFERVVNTPTRGIGDRTLDVVRQTSRDRQLTLWQACRELLQEKALAGRAASALQRFMELIDALAQETADMPLHVQTDRVIKDSGLRTMYEQEKGEKGQTRIENLEELVTATRQFSYNEEDEDLMPLQAFLSHAALEAGEGQADTWQDAVQLMTLHSAKGLEFPQVFIVGMEEGMFPSQMSLDEGGRLEEERRLAYVGVTRAMQKLTLTYAETRRLYGKEVYHRPSRFIGELPEECVEEVRLRATVSRPVSHQRMGTPMVENDSGYKLGQRVRHAKFGEGTIVNMEGSGEHSRLQVAFQGQGIKWLVAAYARLESV",Km,42.52 ± 13.8 µM
